Reference: paper PMC2664613

Target: F-actin (rabbit muscle actin polymerised in vitro) (rabbit) (UniProt P68135)
Test: co-sedimentation

Kd: 300 nM
Substance: GST-PICK1 (from UniProt Q9EP80 1-416) (natural protein)
